# Source: patent publication US20140193415A1 (Hoffmann-La Roche, published 2014)
# B1: OA-F13B5-scFab-GA201 (bispecific antibody, human IgG1, kappa)
# heavy 1: not shown
# heavy 2: not shown
# light: DIQMTQSPSSLSASVGDRVTITCRASQGINNYLNWYQQKPGKAPKRLIYNTNNLQTGVPSRFSGSGSGTEFTLTISSLQPEDFATYYCLQHNSFPTFGQGTKLEIKRTVAAPSVFIFPPSDEQLKSGTASVVCLLNNFYPREAKVQWKVDNALQSGNSQESVTEQDSKDSTYSLSSTLTLSKADYEKHKVYACEVTHQGLSSPVTKSFNRGEC
# B2: OA-L31D11-scFab-GA201 (bispecific antibody, human IgG1, kappa)
# heavy 1: not shown
# heavy 2: not shown
# light: B1 light
# B3: OA-Ak18-scFab-GA201 (bispecific antibody, V domains shown)
# VH 1: QVELVESGGGVVQPGRSQRLSCAASGFTFSSYGMHWVRQAPGKGLEWVAIIWFDGSSTYYADSVRGRFTISRDNSKNTLYLQMNSLRAEDTAVYFCARELGRRYFDLWGRGTLVSVSS
# VL 1: EIVLTQSPATLSLSPGERATLSCRASQSVSSYLAWYQQKPGQAPRLLIYDASKRATGIPARFSGSGSGTDFTLTISSLEPEDFAVYYCQQRSKWPPWTFGQGTKVESK
# VH 2: QVQLVQSGAEVKKPGSSVKVSCKASGFTFTDYKIHWVRQAPGQGLEWMGYFNPNSGYSTYAQKFQGRVTITADKSTSTAYMELSSLRSEDTAVYYCARLSPGGYYVMDAWGQGTTVTVSS
# VL 2: DIQMTQSPSSLSASVGDRVTITCRASQGINNYLNWYQQKPGKAPKRLIYNTNNLQTGVPSRFSGSGSGTEFTLTISSLQPEDFATYYCLQHNSFPTFGQGTKLEIKRT
# Target: human EGFR on human tumor cells (A549, BxPC3) (human, UniProt P00533 25-1200)
# Test: cell-based or functional assay
Binder,Inhibition of EGFR phosphorylation (IC50) A549,Inhibition of EGFR phosphorylation (IC50) BxPC3
B1,0.23 nM,0.82 nM
B2,0.19 nM,0.47 nM
B3,0.23 nM,1.67 nM
